B1: Alexa Fluor 488–labeled FABP1 (natural protein, human, UniProt P07148 1-127, looked up)
chain: MSFSGKYQLQSQENFEAFMKAIGLPEELIQKGKDIKGVSEIVQNGKHFKFTITAGSKVIQNEFTVGEECELETMTGEKVKTVVQLEGDNKLVTTFKNIKSVTELNGDIITNTMTLGDIVFKRISKRI
modifications: Alexa Fluor 488 C5 maleimide on Cys-71 of the construct (Cys-69 of FABP1); low background labeling of free amines
notes: final construct is a 15,185.4 Da protein; Cys-69 of FABP1 is Cys-71 in the construct. numbers count on: Cys-71 on the construct, Cys-69 on FABP1; The unlabeled, delipidated form of the same protein was used in the palmitate transfer and catalytic assays; also called Alexa-FABP1; Alexa-488-labeled FABP1; not shown: GST, N-terminal, cleaved; His6, C-terminal, kept

Tests used:
P450 4A11 = biological target: T1, P450 4A11 (Homo sapiens, UniProt Q02928)
T1 sequence (Q02928 5-519): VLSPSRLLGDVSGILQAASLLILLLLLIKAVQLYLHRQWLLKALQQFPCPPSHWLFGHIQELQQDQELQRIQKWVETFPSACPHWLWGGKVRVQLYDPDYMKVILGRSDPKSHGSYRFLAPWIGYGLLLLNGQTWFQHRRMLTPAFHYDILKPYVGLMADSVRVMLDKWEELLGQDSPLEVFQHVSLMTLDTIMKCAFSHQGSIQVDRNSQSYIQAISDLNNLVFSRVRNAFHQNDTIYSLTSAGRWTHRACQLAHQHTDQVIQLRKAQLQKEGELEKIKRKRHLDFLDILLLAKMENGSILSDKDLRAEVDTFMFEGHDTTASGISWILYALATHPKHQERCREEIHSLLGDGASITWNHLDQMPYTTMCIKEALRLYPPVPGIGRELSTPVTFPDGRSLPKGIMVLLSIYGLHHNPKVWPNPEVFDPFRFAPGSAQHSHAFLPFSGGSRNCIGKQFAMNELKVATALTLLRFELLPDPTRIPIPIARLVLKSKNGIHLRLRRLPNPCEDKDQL

Cytochrome P450 4A11 [1] = biological target: T2, Cytochrome P450 4A11 (human, UniProt Q02928 5-519); test: other fluorescence titration; Alexa-FABP1 (25 nM) in the cuvette, P450 4A11 titrated in (0–50 nM); 10 mM potassium phosphate, pH 7.4; excitation 470 nm, emission maximum 510 nm; quadratic fit; no phospholipid; conditions: both partners purified
T2 construct: cytochrome P450 4A11, human fatty acid ω-hydroxylase
T2 sequence (looked up): T1 sequence (Q02928 5-519)

Cytochrome P450 4A11 [2] = biological target: T2, Cytochrome P450 4A11; test: other fluorescence titration; Alexa-FABP1 (25 nM) in the cuvette, P450 titrated in (P450 4A11 0–50 nM); 100 mM potassium phosphate, pH 7.4; excitation 470 nm, emission maximum 510 nm; normalized to a buffer titration; no phospholipid; conditions: both partners purified
Cytochrome P450 4A11 [3] = biological target: T2, Cytochrome P450 4A11; test: stopped-flow fluorescence kinetics; Alexa-FABP1 and P450 4A11 rapidly mixed, 0.125 μM each final; 100 mM potassium phosphate, pH 7.4; excitation 470 nm, emission >495 nm; single exponential fit and KinTek Explorer fit to E+F↔EF; conditions: both partners purified

Molecule | P450 heme Soret spectral shift induced (P450 4A11) | Kd (Cytochrome P450 4A11 [1]) | Kd (Cytochrome P450 4A11 [2]) | koff (Cytochrome P450 4A11 [3]) | kon (Cytochrome P450 4A11 [3])
CC(=O)N1CCN(c2ccc(OCC3COC(Cn4ccnc4)(c4ccc(Cl)cc4Cl)O3)cc2)CC1 (centres unmarked) [ketoconazole] | type II | – | – | – | –
B1 | – | 3.3 ± 0.9 nM | 120 ± 80 nM | 2.4 s⁻¹ | 2e+07 M⁻¹ s⁻¹
